In the supplement of paper PMC9170038:

Tested on: K4 kissing-loop RNA reporter
Assay: apparent KD of K4 kissing-loop reporter; higher = weaker reporter binding
Details: Eterna round: R107
Experimental: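 RNA-MaP round R107: designed RNA switches with theophylline, tryptophan, arginine or FMN aptamers are transcribed on-chip within common flanks. They are titrated with a labelled K4 kissing-loop RNA reporter in RNA-MaP buffer (100 mM Tris pH 7.5, 80 mM KCl, 4 mM MgCl2), without ligand or with the indicated ligand. Median apparent KD per design.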

[1] = input ligand: theophylline 20 uM
[2] = input ligand: tryptophan 2.4 mM
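Note: bound reporter read as fluorescence of individual clusters on recovered sequencing chips by microscopy, with normalized cluster intensities fitted with a binding model.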

Row | Sequence | apparent KD of K4 kissing-loop reporter (input ligand: FMN 200 uM) [nM] | apparent KD of K4 kissing-loop reporter (input ligand: arginine 13.2 mM) [nM] | apparent KD of K4 kissing-loop reporter (input ligand: none) [nM] | apparent KD of K4 kissing-loop reporter [1] [nM] | apparent KD of K4 kissing-loop reporter [2] [nM]
1 | UAUUAAUUGACGGCCGCCACUAUUGUGAUUUAUUUGUUUGAGUGAUGUUUUGAUGUUUGAUUUUGUAGGACCGGGUUAUGUGUUA [zwzcmullin] | 918 | 768 | 954 | 816 | 711
2 | UAUUCUAAUGCGGCCGCCACUGGAAGUGAUGUUUCCUCUGGCUAUCAUUUCGGACGGUAUUGUCCCAGGACCGGGCAUCCCUCUC [theeternabot_exclusion_KL_Trp_B_4] | 109 | 101 | 106 | 104 | 103
3 | UAUUUAGUGACGGCCGCCACUAUUGUGAUUUAAUUGUUUGAGUGAUGUUUUGAUGUUUGAUUUUGUAGGACCGGGUUAUGUGUUA [tyttmullin] | 1020 | 745 | 827 | 791 | 749
4 | UCACAGUCCAAAGGAUAUUGAGUGCGCGUGCGAUUUAAGCUGAAGCCGUAGCUAGUGAUGUUAGCCCAAGAAGGUUGGUAGCCAG [theeternabot_exclusion_KL_FMN_B_16] | 136 | 128 | 140 | 193 | 115
5 | UCCAGCAGUACUGAUACCAGACUGCAUGUAGUGAUGUUGCAUAAGGGCAUAGAUGUCUCAGUCCCUUGGCAGCGGUACUGUUGCA [#09 K4 Theophylline B Same State] | 379 | 294 | 325 | 251 | 286
6 | UCCCGAGUGAUGUUCGGCGCGGUCACCGAAGGAGCGGGCGAAAGCCCAGGUAGGUCGCGGUAGCGGAGUGAUUCUCCGCGACCGC [Same State Arginine A GF 24] | 509 | 241 | 286 | 344 | 298
7 | UCCGAGCUUAUUGAUACCAGUUCGGCGAGCUACUAGAGUGAUGUUCUUGUAAGCGUACACAACCCUUGGCAGCAAUAGAGGAGGU [theeternabot_sameState_KL_Theo_B_37] | 157 | 128 | 135 | 130 | 135
8 | UCCGGUCGGUGAGCCAGUGAUGUUGGUCAGAAGGAUAUCUGGCAACAGAGAAGGUCUGCAUCAGCCUAGAUAUCCUGGCGACCGG | 145 | 91.4 | 79 | 84.2 | 69.2
9 | UCCUAGACUUAGCUAGGUAUAUAAUACGAUACCAGUCUAGAGAUAGACCCUUGGCAGCGUAGGCAGUGAUGUUGCCACUAGCUGA [Theo B SS t7a] | 97.6 | 110 | 103 | 111 | 101
10 | UCCUAGGACUUCAGGCGAAAGCCCUGCGAAGGAGCGUGCGAAAGCACAGGUAGGUCGCGCAGUGAUGUUGCACCUAGGUAAUAAA [#SwitchBubble 20 #K4Late] | 481 | 656 | 489 | 1020 | 124
11 | UCCUAGGCUCGAAAGAGCCUAGGAUUUACUCAGGAUAUCCGGAAACGGAGAAGGGAGUGACUAGUGAUGUUAGGGACUCCCUAUU | 93.1 | 81.7 | 87.9 | 85.2 | 94.4
12 | UCCUGCAAUCUGCCACGAAAGUGGAUGGAUACCAGAGUCGAAAGACUCCCUUGGCAGCCAGUGAUGUUGGAAGCAGGUAAAUAAA | 268 | 396 | 454 | 460 | 271
13 | UCCUUUUUUGCCAGUGAUGUUGGACAGGAAGGAGCGGGCAUAAGCCCAGGUAGGUCGCCUGUCAACUUUCUUAUAGCCCUAAGGU [Edveza] | 271 | 226 | 236 | 210 | 245
14 | UCGAAGGAUGGAAGGAGCGCUCGUCAGUCCUGCGAGUGAUGUUCGUGGGUAAAUAUUCGCGAGCAGGUAGGUCGCCAUCUUGAGA [Laatla] | 135 | 96.7 | 112 | 108 | 129
15 | UCGAUGGCCAGCGAUACCAGCCCAGUGAUGUUGGGCACAUGGUUGCGGGAAAUCCCAUUGGGCCCUUGGCAGCGCUUGCAUAGGU [Cezaat] | 197 | 155 | 162 | 219 | 171
16 | UCGGACCCUGGAGGAUAUGAGUCGAGUGAUGUUCGGCGGUCCAUGCCGAUGCGGCGUUAUGCCCUUUUAGAAGGCCAGGGUCCGA [#2 Exclusion - FMN B Attempt #10 (HarryS)] | 498 | 216 | 277 | 268 | 264
17 | UCGGACGCGCACCUAGGCCAAUCCACUGCGAAGGAUAUGCGCGCCAGCAGAAGGUCGUUUUAUGAGUGAUGUUUAGAAACAGCGU [theeternabot_exclusion_KL_FMN_A_25] | 428 | 250 | 305 | 294 | 246
18 | UCGGGCGGCUGAAGGAGCGGGCGGGCCCGAGUGAUGUUCGGGUGGGCUGUGAGGCCCGGAGCCCAGGUAGGUCGCGGUUCCGCCC [#2 Same State - Arginine B Attempt #28 (HarryS)] | 262 | 181 | 157 | 168 | 158
19 | UCUGUGUCCGCGGCCGCCACUCGGGACUAAGUGAUGUUUAGUCCUUCAGAAUAAAGAAGUGAUGAGAGGACCGGGCGAUCGCACC [theeternabot_sameState_KL_Trp_B_2] | 100 | 81.9 | 99.6 | 72.3 | 102
20 | UCUGUUGUAUAUGAUACCAGCAGUGAGAGACAGGAAGUAUAGUGAUGUUAUAUGAGAGAAUGCCCUUGGCAGCGUGUGCGGUUGG [SSTheophylB.W] | 191 | 158 | 155 | 148 | 131
21 | UCUGUUGUAUAUGAUACCAGCAGUGAGAGACGAGAAGUAUAGUGAUGUUAUAUGAGAGAAUGCCCUUGGCAGCGUGUGCGUGUGG [SSTheophylB.aB] | 111 | 110 | 95.4 | 118 | 83.2

Row | Sequence | apparent KD of K4 kissing-loop reporter (input ligand: FMN 200 uM) [nM] | apparent KD of K4 kissing-loop reporter (input ligand: arginine 13.2 mM) [nM] | apparent KD of K4 kissing-loop reporter (input ligand: none) [nM] | apparent KD of K4 kissing-loop reporter [1] [nM] | apparent KD of K4 kissing-loop reporter [2] [nM]
22 | UGAACCGCCCAGUGAUGUUGGGCCAUAGAUACCAGCCUCUCCGACGGCCCUUGGCAGCUAGGGCCCGGCAGGUAGGAGACUCUGC [Orarzasove] | 199 | 220 | 272 | 239 | 204
23 | UGACAUUGCUCAGAUACCAGACAUGAGCAUCAGCCAUGUGCCAAAUAAACGUACAUAAAUGUCCCUUGGCAGCUGAGCAAUGUCU [TheoBX 11] | 53 | 33.2 | 38.3 | 118 | 64.9
24 | UGACUACAAAAGGAAUAAUCCUAGUGAUGUUAGGAUAUGCUGAUAAGCAGAAGGAACUGAGAUCGAAAGAUCUCAAAUGUAGUCU [FmnAX 25 Mat Inspired #SwitchBubble #StaticStem #K4Early] | 116 | 89.1 | 92.3 | 103 | 93
25 | UGACUGGACUGAAGGAGCGCGAAACUCCUAGUGAUGUUAGGAAUACGAGACAAAGUCUCGACGCAGGUAGGUCGCAGUCUAGUCU [ArgBS 16 #SwitchBubble #StaticStem] | 115 | 94.5 | 113 | 110 | 100
26 | UGACUGGACUGAAGGAGCGCGCGAGACAAAGUCUCGAACUGGUAGUGAUGUUAUCAAAUAACGCAGGUAGGUCGCAGUCUAGUCU [ArgBS 12 #SwitchBubble #StaticStem] | 251 | 167 | 255 | 193 | 188
27 | UGACUGGACUGAAGGAGCGUGGAAGGAGCGUAAGUAGUGAUGUUGCUUACAGGUAGGUCGCCGCAGGUAGGUCGCAGUCUAGUCU | 62.5 | 47.4 | 56.5 | 53.6 | 63.5
28 | UGACUGGACUGAAGGAGCGUUCAGGUAGGUCGCUAAGGAGUGAUGUUCCAUAGAAGGAGCGAACAGGUAGGUCGCAGUCUAGUCU [ArgBS 29 #DoubleAptamer #SwitchBubble] | 139 | 169 | 163 | 190 | 102
29 | UGACUGGACUGAAGGAGCGUUGAAGGAGCGUAAGUAGUGAUGUUGCUUACAGGUAGGUCGCAGCAGGUAGGUCGCAGUCUAGUCU | 67.1 | 43.7 | 63 | 54.3 | 52.6
30 | UGACUGGAUGGAAGGAGCGCUAAACUCCUAGUGAUGUUAGGGAAACGAGACAAAGUCUCGAGGCAGGUAGGUCGCCAUCUAGUCU [FiskerMod 15 - Jieux - Same State - Arginine B] | 183 | 139 | 168 | 165 | 155
31 | UGACUGGAUGGAAGGAGCGCUAAACUCCUAGUGAUGUUAGGGACACGAGACAAAGUCUCGAAGCAGGUAGGUCGCCAUCUAGUCU [FiskerMod 13 - Jieux - Same State - Arginine B] | 219 | 156 | 160 | 352 | 166
32 | UGACUGGAUGGAAGGAGCGCUAAACUCCUAGUGAUGUUAGGGACACGAGACAAAGUCUUGAAGCAGGUAGGUCGCCAUCUAGUCU [FiskerMod 9 - Jieux - Same State - Arginine B] | 217 | 187 | 229 | 228 | 238
33 | UGAUACCAGACGGCCGCCACUAGACCAGUCAAAGACUGGAUGUGAUGUUUGAGGAGUGAUGUUCCUAGGACCGGGUCUGGUAUCU [TrypBX 4 #Palindromic #SwitchBubble #StaticStem] | 91.3 | 76.7 | 82.4 | 87.6 | 28.2
34 | UGAUACCAGACGGCCGCCACUAGGACCGGGAGUGAUGUUCCGAAAAUUAAAUGCUCGGCCGCCACUAGGACCGGGUCUGGUAUCU [TrypBX 28 #DoubleAptamer #SwitchBubble] | 478 | 253 | 308 | 349 | 128
35 | UGAUACCAGACUGAUACCAGCAGUGAUGUUGCUGAUAAGGGUAGAGUCAAAGACUCUACCUGCCCUUGGCAGCAGUCUGGUAUCU [TheoBX 14 #SwitchBubble #StaticStem] | 167 | 146 | 167 | 173 | 156
36 | UGAUACCAGACUGAUACCAGCCACAGAGUCAAAGACUCUGAUAAAGGUACCAGUGAUGUUGGCCCUUGGCAGCAGUCUGGUAUCU [TheoBX 17 #SwitchBubble #StaticStem] | 158 | 126 | 143 | 151 | 141
37 | UGAUACCAGGCGGCCGCCACUCCUACAGGUCAAAGACCUGUAAAGCUGGUUCUCCAGUGAUGUUGGAGGACCGGGCCUGGUAUCU [FiskerMod 29 - Jieux - Exclusion - Tryptophan B] | 206 | 156 | 179 | 150 | 428
38 | UGAUAGGACAGAAGGAGCGGAAGUGAUGUUUCCAAAAGGAAAGGUCGACAAAGUCGACCCUUCCAGGUAGGUCGCUGUCCUAUCU [ArgBX 8 #Palindromic #SwitchBubble #StaticStem] | 88.2 | 90.5 | 82.9 | 84.9 | 81.5
39 | UGAUAGGACAGAAGGAGCGGAAUCCUGUCAAAGACAGGAAAAUAAAUAAAAGGAGUGAUGUUCCAGGUAGGUCGCUGUCCUAUCU [ArgBX 19 #SwitchBubble #StaticStem] | 271 | 210 | 248 | 243 | 215
40 | UGAUAGGACAGAAGGAGCGGAAUGCUAGUCAAAGACUAGCAACGUUAAACAGGAGUGAUGUUCCAGGUAGGUCGCUGUCCUAUCU [ArgBX 22 #SwitchBubble #StaticStem] | 143 | 124 | 135 | 140 | 113
41 | UGAUUGAACUGAAGGAGCGGCAAGAGAGAAGGAAAUAUAGUGAUGUUAUAUAAGAGAGAGAGCCAGGUAGGUCGCAGAGGGAGGA [ExArgB.D] | 198 | 113 | 159 | 134 | 151
